# Test results taken from patent KR20230010676A.
# Biological target: SARS-CoV-2 스파이크 D19 (VSV 슈도바이러스) (SARS-CoV-2) (UniProt P0DTC2)
# Assay: cell-based or functional assay
substance,measurement,value
S2D106-LS (antibody),"EC50 (neutralisation, interpolated)",3.6 ng/mL
same,"EC90 (neutralisation, interpolated)",15.4 ng/mL
same,IC50 (neutralisation),3.38 ng/mL
